Two molecules from patent US20250288652A1, “BACTERIOPHAGE LYSINE, CHIMERA THEREOF AND APPLICATION THEREOF” (priority 2021, published 2025) can be followed below.

“And” between values parts separate entries of the source, which are not always exact repeats. Identical values can stand only once. Where only a bound is given, the exact number is not on record here.

Assay [1] relates to biofilm-associated P. acnes strain 10. As to the kind of experiment: Killing of biofilm-associated P. acnes (CFU count). The assay is classed as cell-based, Propionibacterium acnes. The settings on record: strain 10 biofilm, treated overnight at 25° C. under anaerobic conditions. The method, then: Strain 10 with an OD600 of 1.0 was added to a 96-well polystyrene plate to inoculate the biofilm overnight in an anaerobic gas mixture. The supernatant was removed and the wells were gently rinsed with 0.9% NaCl. Biofilm formation medium (RCM+5% glucose) was added to allow biofilm growth overnight in the anaerobic gas mixture. The medium was removed and the wells were gently rinsed with 0.9% NaCl. Biofilms were then treated with buffer or PACL403 overnight at 25° C. under anaerobic conditions. The buffer or PACL403 was removed and the wells were rinsed with 0.9% NaCl. Resuspend in 0.9% NaCl, plate on RCM agar and count biofilm-associated CFU.

The test system of assay [2] is Propionibacterium acnes. As to the kind of experiment: MIC of selected lysin after single-step purification, Example 8. Type of assay: cell-based. To be noted: single-step purified lysin. The method, then:
Express PACL 10, 390, 391, 392, 403 and 404 according to the method of Examples 1-4, and perform the following single-step purification: put Escherichia coli BL21 (DE3) containing each recombinant expression plasmid in the self-induction medium incubate at 37° C., 300 rpm for 3 hours, then at 18° C., 300 rpm for 16-18 hours. Cells were collected by centrifugation and lysed by homogenizatoin under high pressure. Clarified lysate from 1 L of E. coli culture medium expressing the protein of interest was loaded onto a 26 mm/200 mm column containing 70 mL of purification resin. The lysin was purified according to the conditions in Table 8-1, and the purity determination of the lyase after single-step purification is shown in FIG. 5. These lysin are used to determine the minimal inhibitory concentration (MIC).
The minimal inhibitory concentration (MIC) determination method is as follows. Propionibacterium acnes is streaked on Fortified Clostridium Agar (Fortified Clostridium Medium RCM with 1.5% agar, RCM was prepared according to the revised recipe, per liter—10 g acid hydrolyzed casein, 10 g beef extract, 3 g yeast extract, 5 g D—glucose, 5 g sodium chloride, 3 g sodium acetate, 0.5 g L-cysteine hydrochloride). Plates were incubated anaerobically at 37° C. for 72 hours. The inoculum for MIC determination was first prepared by resuspending single clones from RCA in 0.9% saline to an OD600 of 0.05, corresponding to 10^7 colony-forming units per milliliter (cfu/mL). The suspension was diluted 20-fold in RCM to an inoculum of 5*10^5 cfu/mL. Two-fold serial dilutions of each lyase were prepared in 0.9% saline and added not to exceed one-tenth of the total culture volume. Cultures were grown anaerobically at 37° C. for 48-72 hours. The MIC is the lowest concentration of lyase at which no growth of P. acnes can be observed with the naked eye.

The next assay deals with P. acnes 34A strain. In words: Time sterilization (time killing) test. To be noted: 50 mM sodium phosphate pH 6.0. The assay is classed as cell-based, Propionibacterium acnes. The method, then:
The time sterilization test method is as follows. Resuspend the P. acnes 34A strain colony in 0.9% saline to an OD600 of 0.05, which corresponds to 10^7 cfu/mL. The suspension was diluted 10-fold in 50 mM sodium phosphate (pH 6.0) to ˜10^6 cfu/mL. Add 0, 0.5×, 1×, 2× MIC of two-fold serial dilutions of PACL10 to the 34A strain, respectively. Ten-fold serial dilutions (0, 1, 2, 3 log) from the assay were plated on enhanced Clostridium agar (RCA) at each time point and incubated anaerobically at 37° C. for 3 days.

Assay [3] relates to Propionibacterium acnes. As to the kind of experiment: Minimum inhibitory concentration (MIC) determination, Example 6. The assay is classed as cell-based. The settings on record: listed as #10. The method, then:
(§1) The minimal inhibitory concentration (MIC) determination method is as follows. First prepare a colony suspension in 0.9% saline to an OD600 of 0.05 to prepare an inoculum, which corresponds to 10^7 colony-forming units per mL (cfu/mL). The suspension was diluted 20 times in agar-free enhanced Clostridium medium (RCM) to an inoculum of 5*10^5 cfu/mL. Prepare 2-fold serial dilutions of PACL10 or vancomycin with 0.9% saline and add no more than one-tenth of the total culture. Cultures were grown anaerobically at 37° C. for 3 days. The MIC is the lowest concentration of PACL10 or vancomycin at which no growth of P. acnes can be observed with the naked eye. The minimum bactericidal concentration (MBC) was determined by subculturing the above cultures on enhanced Clostridium agar (RCA) plates containing 0.1% Tween-80. MBC is the lowest concentration of PACL10 or vancomycin at which no P. acnes colonies are seen on the enhanced Clostridium agar (RCA) plate.

Assay [4] has as its system Propionibacterium acnes. As to the kind of experiment: Minimum bactericidal concentration (MBC) determination, Example 6. Type of assay: cell-based. The settings on record: listed as #10. The method, then:
as §1

B1: PACL403: chimeric lysin, amino acid sequence SEQ ID NO: 271 (protein)
chain: MTFIQAKHHGGHNNPPVTRLVIHATCPDVGYPSASRAGRAVSTAHYFQETTRPASAHYICDISTTVQCLSEETVGYHAPPNSHSIGIEICADGGSHASFSNPAHAYTREQWLSPQVWPAVERAAMLARGICQRHNIPIRRLSIADVKAGKRGICGHNEVSEAFHQSDHDDPGPYFPWDGFIALVNGHSAPSRQEELTVSDGGEVRTPGQQDTKPSVPTPSLTEIGDQDMNGCYYNLNSKTRTYLIFDSRSGFYHEFSQGNGNGPMSPDYVNPIAKGWDTGSWPAISPGHAKVLKAALDKVRKGI
modifications: PACL403
For B1, in assay [1], the “bactericidal activity against biofilm-associated P. acnes” value was “killed biofilm-associated P. acnes”. For the same molecule, the “MIC of selected lyases relative to Propionibacterium acnes” value was 16 µg/mL in the assay with Propionibacterium acnes [2] (clade IA1, strain 1); 16 µg/mL with Propionibacterium acnes [2] (clade IA1, strain 5); 16 µg/mL in the assay with Propionibacterium acnes [2] (clade IA1, strain 7); 8 µg/mL with Propionibacterium acnes [2] (clade IA2, strain 10); 8 µg/mL with Propionibacterium acnes [2] (clade IA2, strain 17); 8 µg/mL with Propionibacterium acnes [2] (clade IA2, strain 33). Further, the “MIC of selected lyases relative to Propionibacterium acnes” value in the assay on Propionibacterium acnes [2] (clade II, strain 34) amounted to 16 µg/mL.

B2: PACL10: phage lysin, amino acid sequence SEQ ID NO: 10; 29.4 kDa (protein)
chain: MTFIQAAHHSSGSNLPPTRVVIHATCPELGFPRASAKGRAVSTARYFQSAISGGSAHYVVDVGETVQCLAEDVIAWHAPPNSRSLGIEICADGGSATSFKNPNVRYSRAQWLSPQVWPAVLRAAALTRQMCQKYGIPVTKLSASDLKAGKKGICGHVDVSNAWHQSDHDDPGPDFPWAEFMAAVKGGATNPDELELTVSQFSDLTKRLQGMQEQTHHDLGVVQTKLATMDTVKNPRTGAKWSLKDAIWSIWYYVLENRDRIAALEKKVK
modifications: PACL10
notes: 29.4 kDa
On to B2, for which the “time for cfu/mL to drop below the detection limit” value in the assay with P. acnes 34A strain (at 2× MIC 12.8 μg/mL) is at most 2 h; in the assay on P. acnes 34A strain (at MIC 6.4 μg/mL), at most 3 h. Further, the minimum inhibitory concentration (MIC) – broadly, the least concentration at which growth counts as inhibited – was 6.4 μg/mL and 0.218 μM against Propionibacterium acnes [3] (clade IA1, strain 1); 12.8 μg/mL and 0.436 μM against Propionibacterium acnes [3] (clade IA1, strain 5); 6.4 μg/mL and 0.218 μM against Propionibacterium acnes [3] (clade IA1, strain 7); 6.4 μg/mL and 0.218 μM in the assay with Propionibacterium acnes [3] (clade IA1, strain 15); 12.8 μg/mL and 0.436 μM against Propionibacterium acnes [3] (clade IA1, strain 27); 6.4 μg/mL and 0.218 μM in the assay on Propionibacterium acnes [3] (clade IA2, strain 10). In addition, the MIC is 6.4 μg/mL and 0.218 μM against Propionibacterium acnes [3] (clade IA2, strain 14); 6.4 μg/mL and 0.218 μM against Propionibacterium acnes [3] (clade IA2, strain 17); 12.8 μg/mL and 0.436 μM with Propionibacterium acnes [3] (clade IA2, strain 31); 12.8 μg/mL and 0.436 μM with Propionibacterium acnes [3] (clade IA2, strain 33A); 12.8 μg/mL and 0.436 μM against Propionibacterium acnes [3] (clade IB, strain 13); 6.4 μg/mL and 0.218 μM in the assay with Propionibacterium acnes [3] (clade II, strain 34A). The MBC (usually the smallest concentration meeting the test's criterion for killing) against Propionibacterium acnes [4] (clade IA1, strain 1) was 25.6 μg/mL and 0.871 μM; in the assay with Propionibacterium acnes [4] (clade IA1, strain 5), 12.8 μg/mL and 0.436 μM; against Propionibacterium acnes [4] (clade IA1, strain 7) it was 12.8 μg/mL and 0.436 μM; in the assay on Propionibacterium acnes [4] (clade IA1, strain 15), 25.6 μg/mL and 0.871 μM; against Propionibacterium acnes [4] (clade IA1, strain 27), >25.6 μg/mL and >0.871 μM; against Propionibacterium acnes [4] (clade IA2, strain 10), 12.8 μg/mL and 0.436 μM. Further, the MBC in the assay on Propionibacterium acnes [4] (clade IA2, strain 14) is >25.6 μg/mL and >0.871 μM; against Propionibacterium acnes [4] (clade IA2, strain 17) it was 25.6 μg/mL and 0.871 μM; against Propionibacterium acnes [4] (clade IA2, strain 31), >25.6 μg/mL and >0.871 μM; against Propionibacterium acnes [4] (clade IA2, strain 33A), >25.6 μg/mL and >0.871 μM; in the assay on Propionibacterium acnes [4] (clade IB, strain 13) it was 25.6 μg/mL and 0.871 μM; in the assay with Propionibacterium acnes [4] (clade II, strain 34A) it was 6.4 μg/mL and 0.218 μM. For the same molecule, the “MIC of selected lyases relative to Propionibacterium acnes” value in the assay on Propionibacterium acnes [2] (clade IA1, strain 1) came out at 8 µg/mL; in the assay with Propionibacterium acnes [2] (clade IA1, strain 5), 8 µg/mL; in the assay with Propionibacterium acnes [2] (clade IA1, strain 7) it was 8 µg/mL; in the assay with Propionibacterium acnes [2] (clade IA2, strain 10), 8 µg/mL; in the assay on Propionibacterium acnes [2] (clade IA2, strain 17), 8 µg/mL; with Propionibacterium acnes [2] (clade IA2, strain 33), 8 µg/mL. Moreover, the “MIC of selected lyases relative to Propionibacterium acnes” value with Propionibacterium acnes [2] (clade II, strain 34) amounted to 8 µg/mL.
